Assay results taken from patent US20230203156A1 (WILLIAM ROBERT ARATHOON LIVING TRUST DATED AUGUST 29 2016, published 2023).
Residue numbers refer to the chain shown, from its start. Names and notes keep the numbering of the source. Values joined by “and” are separate entries in the source; they are usually repeats but may differ in a detail not shown here. Equal entries are not always repeated. Where two headings read alike, the source gives them in different places.

How the values were obtained:
[1] = target: T1, cynomolgus MDR1 (Macaca fascicularis) (Macaca fascicularis (cynomolgus), UniProt P08183 1-1280 (human entry)); experiment: flow cytometry, 293T cells transfected with cynomolgus MDR1
T1 construct: also called cB1; cynomolgus ABCB1

[2] = target: T2, human MDR1 (multidrug resistance protein 1) (human, UniProt P08183 1-1280); experiment: cell-based or functional assay
[3] = target: T2, human MDR1 (multidrug resistance …); experiment: cell-based or functional assay; remark: listed apart in the source
[4] = target: T2, human MDR1 (multidrug resistance …); experiment: flow cytometry, 293T cells stably expressing human ABCB1 (293T_ABCB1_OX)
human CD47 [5] = target: T3, human CD47 (human, UniProt Q08722 19-323); experiment: binding to C6 cells expressing human CD47, figure legend
T3 construct: whole, on cells; Overexpressed on rat C6 cells, or endogenous on human tumour cell lines; also called KT14; hKT14

[6] = target: T2, human MDR1 (multidrug resistance …); experiment: binding to C6 cells overexpressing human ABCB1 (FIGS. 17A-17B)
human CD47 [7] = target: T3, human CD47; experiment: binding to C6 cells overexpressing human CD47 (FIGS. 17A-17B)

B1: B1.28 (antibody, human IgG1, V domains shown)
VH: EVKLVESGGGLVKPGGSLKLSCAASGFTFGLYTMSWVRQTPERRLEWVATISSGGSNTYYPDSVKGRFTISRDNAKNNLFLQMNSLRSEDTALYYCARYYRYDAWFAYWGQGTLVTVSS
VL: DVLLTQTPLSLPVSLGDQASISCRSSQNIVHSTGNTYLDWYLQKPGQSPKLLIYKVSNRFSGVPDRFSGSGSGTDFTLKISRVEAEDLGVYFCFQGSHIPRTFGGGTKLEIK
notes: expressed with human IgG1 heavy and human kappa light constant regions; also called KNJY B1-28; KB1.28
binding result [1]: binds | IC50 of vincristine on N6/ADR cells with antibody [2]: 3.34 nM and 2.87 nM

B2: B1.275 (antibody, human IgG1, V domains shown)
VH: EVMLVESGGALVKPGGSLKVSCAASGFTFSNYAMSWVRQSPEMRLEWVATISSGGTNTYYPDSVKGRFTISRDNARNTLYLQMSSLRSKDTAMYYCARYSNYGWFPYWGQGTTLTVSS
VL: B1 VL with L3V, L4M, N28T, T33D, N35Y, D39E, K79R, F92Y, I99V, R101Y
IC50 of vincristine on N6/ADR cells with antibody [2]: 0.0781 nM

B3: 15D3 (antibody, V domains shown)
VH: EVKVVESGGVLVRPGGSLKLSCAASGFTFSRYTMSWVRQTPEKRLEWVATISSGGGNTYYPDSVKGRFTVSRDNAMSSLYLQMSSLRSEDTALYYCARYGAGDAWFAYWGQGTLVTVSS
VL: B1 VL with L4M, N28S, D39E, V83L, F92Y, I99F, K108R
notes: Known anti-MDR1 antibody; also called KPA01; 15D3 hybridoma
IC50 of vincristine on N6/ADR cells with antibody [3]: 0.466 nM | EC50 [4]: 14.6 nM

B4: MRK16 (antibody, V domains shown)
VH: B1 VH with K3I, G30S, L31S, R43K, S56G, F80Y, N84S, D103E, Y108S, S119A
VL: B1 VL with L4M, L9V, P12S, N28S, D39E, V56I, F92Y, G96A, I99F
IC50 of vincristine on N6/ADR cells with antibody [3]: 0.734 nM

B5: BisAb-1 (15D3 HC-Hz1 DD hIgG1 / KT14 IgG1 KK / B1-28 VL humaniz) (bispecific antibody)
VH: EVQLVESGGVVVQPGGSLRLSCAASGFTFSRYTMSWVRQAPGKGLEWVATISSGGGQTYYPDSVKGRFTVSRDNSKNSLYLQMNSLRTEDTALYYCARYGAGDAWFAYWGQGTLVTVSS
heavy: not shown
VL: B1 VL with L3V, T7S, S14T, D17Q, Q18P, L42Q, K44R, K50R, L88V, G105Q
notes: The 15D3 Hz1 VH is fused to human IgG1 Fc with K392D and K409D (EU)
IC50 of vincristine on N6/ADR cells with antibody [3]: 0.0064 nM | EC50 [4]: 118 nM

B6: B1.30 (antibody, human IgG1, V domains shown)
VH: B1 VH with K3M, G30S, L31S, R43K, S56G, F80Y, N84S, S119A
VL: B1 VL with L4M, N28S, D39E, A85T, F92Y, I99V
IC50 of vincristine on N6/ADR cells with antibody [2]: 0.0522 nM

B7: B1.39 (antibody, human IgG1, V domains shown)
VH: EVMLVESGGGLVKPGGSLKLSCAASGFTFSSYTMSWVRQTPEKRLEWVATVSSGGGNTYYPDSVKGRFTISRDNAKNNLYLQMSSLRSEDTALYYCARYGNYGWFTYWGQGTLVTVSA
VL: B1 VL with L4M, N28S, V30L, T33N, D39E, G69A, V90I, F92Y, I99V
IC50 of vincristine on N6/ADR cells with antibody [2]: 0.0909 nM

B8: B1.85 (antibody, human IgG1, V domains shown)
VH: EVQLVESGGALVKPGGSLKLSCAASGFTFSNYGVSWVRQTPEKRLEWVATISSSGSYTYYPDIVRGRFTISRDNAKNTLYLQMSSLRSEDTAFYYCARGYGNFAWFAYWGQGTLVTVSA
VL: B1 VL with V2I, L3Q, L4M, T7S, N28S, D39E, S81N, F92Y, I99V, R101Y
IC50 of vincristine on N6/ADR cells with antibody [2]: 0.0345 nM

B9: B1.99 (antibody, human IgG1, V domains shown)
VH: B8 VH with G33A, V34M, K43R, S54G, I63S, R65K, R87I, F93L, A97T, Q111H
VL: B1 VL with L3V, L4M, A19V, N28S, T33Y, N35S, D39E, R101Y, I111L
IC50 of vincristine on N6/ADR cells with antibody [2]: 0.0619 nM

B10: KT14.5F9hu scFv-B1.28.hu13 (bispecific antibody, human IgG1, kappa)
scFv: not shown
heavy: EVQLVESGGGLVKPGGSLRLSCAASGFTFGLYTMSWVRQAPGKGLEWVATISSGGSNTYYPDSVKGRFTISRDNAKNSLYLQMNSLRAEDTAVYYCARYYRYDAWFAYWGQGTLVTVSSASTKGPSVFPLAPSSKSTSGGTAALGCLVKDYFPEPVTVSWNSGALTSGVHTFPAVLQSSGLYSLSSVVTVPSSSLGTQTYICNVNHKPSNTKVDKRVEPKSCDKTHTCPPCPAPELLGGPSVFLFPPKPKDTLMISRTPEVTCVVVDVSHEDPEVKFNWYVDGVEVHNAKTKPREEQYNSTYRVVSVLTVLHQDWLNGKEYKCKVSNKALPAPIEKTISKAKGQPREPQVCTLPPSREEMTKNQVSLSCAVKGFYPSDIAVEWESNGQPENNYKTTPPVLDSDGSFFLVSKLTVDKSRWQQGNVFSCSVMHEALHNHYTQKSLSLSPGK
light: EVVLTQSPATLSLSPGERATLSCRSSQNIVHSTGNTYLDWYQQKPGQSPRLLIYKVSNRFSGVPARFSGSGSGTDFTLTISSLEPEDFAVYYCFQGSHIPRTFGGGTKLEIKRTVAAPSVFIFPPSDEQLKSGTASVVCLLNNFYPREAKVQWKVDNALQSGNSQESVTEQDSKDSTYSLSSTLTLSKADYEKHKVYACEVTHQGLSSPVTKSFNRGEC
binding result (human CD47 [5]): binds

B11: KT14.B6H12hu scFv-B1.28.hu13 (bispecific antibody, human IgG1, kappa)
scFv: not shown
heavy: B10 heavy
light: B10 light
binding result (human CD47 [5]): binds

B12: KT14.5F9hu scFv-B1.261.hu1 (bispecific antibody, human IgG1, kappa)
scFv: not shown
heavy: EVQLQESGPGLVKPSETLSLTCTVSGFSLTSYGVHWVRQPPGKGLEWLVVIWSDGSTTYNSALKSRLTISKDNSKNQVSLKLSSVTAADTAVYYCARHGRWLLQRGGAMDYWGQGTMVTVSSASTKGPSVFPLAPSSKSTSGGTAALGCLVKDYFPEPVTVSWNSGALTSGVHTFPAVLQSSGLYSLSSVVTVPSSSLGTQTYICNVNHKPSNTKVDKRVEPKSCDKTHTCPPCPAPELLGGPSVFLFPPKPKDTLMISRTPEVTCVVVDVSHEDPEVKFNWYVDGVEVHNAKTKPREEQYNSTYRVVSVLTVLHQDWLNGKEYKCKVSNKALPAPIEKTISKAKGQPREPQVCTLPPSREEMTKNQVSLSCAVKGFYPSDIAVEWESNGQPENNYKTTPPVLDSDGSFFLVSKLTVDKSRWQQGNVFSCSVMHEALHNHYTQKSLSLSPGK
light: DVQMTQSPSSLSASVGDRVTITCRASQNVGSYIAWYQQKPGKSPKALIYSASYRSSGVPSRFSGSGAGTDFTLTISSLQPEDFATYFCQQYNSYPLTFGGGTKLEIKRTVAAPSVFIFPPSDEQLKSGTASVVCLLNNFYPREAKVQWKVDNALQSGNSQESVTEQDSKDSTYSLSSTLTLSKADYEKHKVYACEVTHQGLSSPVTKSFNRGEC
binding result (human CD47 [5]): binds

B13: KT14.B6H12hu scFv-B1.261.hu1 (bispecific antibody, human IgG1, kappa)
scFv: not shown
heavy: B12 heavy
light: B12 light
binding result (human CD47 [5]): binds

B14: 15D3DD KT14KK B1.28.huL2 LC (bispecific antibody, human IgG1)
heavy 1: not shown
heavy 2: not shown
VL: B1 VL with L3V, T7S, S14T, L15P, D17E, Q18P, K50Q, L88V, F92Y, G105Q
binding result [6]: binds

B15: 15D3DD KT14KK MRK16v5 LC (bispecific antibody, human IgG1)
heavy 1: not shown
heavy 2: not shown
VL: DIVMTQTPLSSPVTLGQPASISCRSSQSIVYSNGNTYLEWYQQKPGQPPRLLIYKISNRFSGVPDRFSGSGAGTDFTLKISRVEAEDVGVYYCFQASHFPRTFGGGTKLEIK
binding result (human CD47 [7]): binds | binding result [6]: binds

B16: 15D3DD KT14KK B1.89v1 LC (bispecific antibody, human IgG1)
heavy 1: not shown
heavy 2: not shown
VL: B1 VL with L4M, N28T, T33N, D39E, N58K, F92Y, G96A, I99F
notes: also called 15D3DD/KT14KK/89v1
binding result (human CD47 [7]): binds | binding result [6]: binds
